The target in assay [1] is T1, recombinant human TNF-α (Product 210-TA-050, R&D) (human, UniProt P01375 77-233).
T1 construct: Bought protein; Amine-coupled to the chip in SPR, biotin-labelled in the P75 ELISA, FITC-labelled in the U937 assay; also called rhTNF-α; Recombinant TNFα (R&D)
The assay is described as follows: flow cytometry competition: FITC-TNF-α (100 ng/ml) on U937 cells, antibody titrated; experiment 2. How it is done:
(§1) U937 cells (ATCC CRL1593) were cultured in RPMI-1640 medium (GIBCO) containing 10% fetal bovine serum (JRH). […] The cells at logarithmic growth phase were counted and then centrifuged at 200 g for 5 min. Supernatant was removed and cell pellets were resuspended in PBS containing 1% fetal bovine serum. The cells were adjusted to a concentration 1×10⁶/ml, and then distributed into flow cytometry test tubes, with 100 μl/tube. […] The diluted samples and control samples were added into flow cytometry test tubes, with 100 μl/tube, and reacted at 4° C. for 1 hour in darkness; the cells were washed twice with PBS containing 1% fetal bovine serum, and centrifuged at 200 g for 5 min each time. Supernatant was removed and cell pellets were resuspended in 300 μl of PBS containing 1% fetal bovine serum. Flow cytometry was used to measure the fluorescence intensity of each tube. Sample concentration was plotted on the x-coordinate and […] was plotted on the y-coordinate.

For assay [2], the target named is T1, recombinant human TNF-α (Product …). The assay is described as follows: competition ELISA: biotin-TNF-α (10 ng/ml) on coated P75 receptor-Fc, antibody titrated; experiment 2. The procedure:
(§2) 10 μg/ml of P75 receptor-Fc fusion protein (which was prepared according to the method described in Chinese Patent Application No. 01132074.5 entitled “Recombinant genes, fusion genes and products of the soluble fragment of Tumor Necrosis Factor Receptor” filed on Oct. 31, 2001) was used to coat ELIAS plates and reacted at 37° C. for 2 h; 3% BSA-PBS was used to block the plate wells and reacted overnight at 4° C. […] The diluted samples and control samples were added to washed ELIAS plates with 100 μl/well and reacted at 37° C. for 1 h; the ELIAS plates were washed; HRP-avidin (Zymed) was diluted at 1:1000 with PBS and added to the ELIAS plates with 100 μl/well and reacted at 37° C. for 1 h; the ELIAS plates were washed; equal volumes of A solution and B solution (Jingmei BioTech Co. Ltd.) of TMB substrate for HRP were mixed and added to the ELIAS plates with 100 μl/well and reacted at room temperature for 10 minutes in darkness; each well was added with 100 μl of 0.5M sulphuric acid to stop the reaction. Absorbance at […] was measured using microplate reader. The concentration of samples was used as x-coordinate and absorbance was used as y-coordinate.
On the technique in general: In an ELISA, binding on a coated surface is turned into a signal by an enzyme label.

For assay [3] the target is unchanged. In words: flow cytometry competition: FITC-TNF-α (100 ng/ml) on U937 cells, antibody titrated; experiment 3. The procedure: as §1
(In general: In flow cytometry, cells or beads pass a laser one at a time.)

Assay [4] has the same target. In words: cell-based or functional assay.
For assay [5] the target is unchanged. In words: competition ELISA: biotin-TNF-α (10 ng/ml) on coated P75 receptor-Fc, antibody titrated; experiment 3. How it is done: as §2
Assay [6] shares this target. The assay is described as follows: SPR, Biacore T100, TNFα amine-coupled to CM5 chip, antibody in flow. The procedure: After each examination, they were washed with 5 μl of 50 mM hydrochloric acid aqueous solution at a flow rate of 3 μl/min so as to wash away the residual antibodies from the immobilized ligands. The binding curves were subjected to nonlinear regression analysis using BIAevalution software (T100 evalution version 2.0, Biacore).

Assay [7] shares this target. The assay is described as follows: competition ELISA: biotin-TNF-α (10 ng/ml) on coated P75 receptor-Fc, antibody titrated; average of 3. The procedure: as §2
Assay [8] shares this target. In words: competition ELISA: biotin-TNF-α (10 ng/ml) on coated P75 receptor-Fc, antibody titrated; experiment 1. How it is done: as §2
The target is the same in assay [9]. In words: flow cytometry competition: FITC-TNF-α (100 ng/ml) on U937 cells, antibody titrated; experiment 1. The procedure:
as §1

Assay [10] shares this target. In words: flow cytometry competition: FITC-TNF-α (100 ng/ml) on U937 cells, antibody titrated; average of 3. The procedure:
as §1

Here are results for one molecule from US20120308575A1 (SHANGHAI BIOMABS PHARMACEUTICALS, published 2012).

The term IC50 denotes the concentration needed to halve the response being measured. A word on the Kd: it is a measure of binding affinity in units of concentration. For orientation: koff means the first-order rate constant of dissociation. As a reminder, the kon is the rate constant with which the complex forms.

T1 sequence (P01375 77-233 limits assumed): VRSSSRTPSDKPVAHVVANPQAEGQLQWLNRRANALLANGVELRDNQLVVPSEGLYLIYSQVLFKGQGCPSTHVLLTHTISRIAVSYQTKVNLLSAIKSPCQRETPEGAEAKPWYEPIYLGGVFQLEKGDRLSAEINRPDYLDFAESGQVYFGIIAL

B1: fully human anti-TNF-α monoclonal antibody 4H16 (antibody, human IgG1, kappa, V domains shown)
VH: QVTLRESGPALVKPTQTLTLTCTFSGFSLSTSGMCVSWIRQPPGKALEWLALIDWDDDKYYSTSLKTRLTISKDTSKNQVVLTMTNMDPVDTATYYCARILVDIVATITNDAFDVWGQGTMVTVSS
VL: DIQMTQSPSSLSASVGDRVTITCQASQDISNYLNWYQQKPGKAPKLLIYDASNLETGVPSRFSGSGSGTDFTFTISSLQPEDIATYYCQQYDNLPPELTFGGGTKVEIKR
notes: The genes carried a signal peptide at the 5' end; also called fully human antibody 4H16
B1: the IC50 in [1] came out at 1.03 µg/mL; in assay [2] it was 0.31 µg/mL; in assay [3], 0.97 µg/mL; in assay [5], 0.27 µg/mL; in [7] it was 0.28 µg/mL; in assay [8], 0.25 µg/mL. Besides, the figures for the IC50 in [9] and in assay [10] were 0.89 µg/mL and 0.96 µg/mL, respectively. Besides, the “IC50 of resistance to TNF-α-mediated killing of L929 cells (MTS), average” value in assay [4] came out at 0.0572 µg/mL. Also, the “IC50 of resistance to TNF-α-mediated killing of L929 cells (MTS), experiment 1” value in assay [4] is 0.0592 µg/mL. In addition, the “IC50 of resistance to TNF-α-mediated killing of L929 cells (MTS), experiment 2” value in assay [4] amounted to 0.0459 µg/mL. For the same molecule, the “IC50 of resistance to TNF-α-mediated killing of L929 cells (MTS), experiment 3” value in [4] is 0.0664 µg/mL. Further, the Kd in assay [6] was 0.36 nM. Moreover, the koff in assay [6] is 5.7e-05 s⁻¹. Moreover, the kon in assay [6] is 158000 M⁻¹ s⁻¹.
